# Laboratory results from the domain aggregation screens of Martell et al. (2025).
# Experiment: soluble fraction after stress (log2 fold change); higher = more stays soluble; pooled small domains, quantitative proteomics
# Conditions: stress: pH 4
# Procedure, shortened: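 Pooled custom libraries of small protein domains were stressed at pH 4 and then measured by high-throughput quantitative proteomics. The fold change in the amount of each domain that stays soluble after the acid stress serves as a measure of aggregation propensity. Fold changes are given on a log2 scale, and higher values mean more of the domain stayed soluble.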
row,Sequence,soluble fraction (log2)
1,HMESILDDFPGLGAVRRAALLEHFGDIDRLRAASAVEITEVDGFGDVLARELHDFLHRPKPDA,-0.768
2,HMYTTHTQSELNEAARFNGRATYQKGIYYNESKKEHFKVVNGKYQALPNVKQVNGDSWIDKTGITHKG,0.202
3,HMSTTHLTASVIKDKVNVRSEADSQNGAIIDKARTGERLLVTDYGNKWTGIVLPDGKRGYIMTEYLQF,0.22
4,HMASMNPVWLEFPNIPWGSAGWRMGWGEDYMRRWAKWYISLAEVERQSYKSDWPEPQEWEGFYAFMEHGT,-1.23
5,HMPIEQVEVPNLTNMTREEAESTLTSLNLKAQVHEEANEADEGKVFKQGTNTGEMVDEGSTIEIWVS,-0.555
6,HMTYAQQIGARIAFLRRLKGLTLAELAERVNKHKSTISKYESGQIIIDIESLKEVADALGVDVAQIVE,0.187
7,HMLLFSVADIVKRSKRILSFKTDAELAAYFGVSRSTLSNWIARNSIDFPLLLSKMKDVDYTWLILGKGTPG,-0.207
8,HMRMSPRERKIYQFIENHPGTKSGEMAEKLGIPLPTIKRLLSDMVASKLLQKHGTGAGTNYSIEE,≥ 0.43
9,HMSASNSIDFANRMIYNKNQVAVFNFGKHMGRPVLEVLKSDPSYYDWMMKGDFPMDTKRKLTEIKLQGF,-0.173
10,HMEQVLNVAVRRGELIMSSAAEQTVRIYSSAGSMVWQGKVSASDVTVELPSGVYVVNGKKVV,-0.513
11,HMKVKEYKLVDWISTFTKNEGYGISQKAAMLLAEFLGDDLSRIANEIEKLKLLVEKGTTINDVHIEENI,-0.721
12,HMRLDHIFSVVERLKGVSLGAGDRLEVQKYEDLLTVYKSKNALSSEEAQTLNDILASLLKMMAKYD,-0.54
13,HMNHLLYPNPANNFIWIKNSTSNTAVIYNLQGVMSKVEVSEEGKIDISRFSPGLYMIKQGERIYKFTIA,-0.358
14,HMPELSPEERAIIETLQKNNDLQVNIIAIKTGMDMGSLSAVLFDLEMKGLVKLLAGGMYHLI,-0.112
15,HMANPMFAEIKKVQKQLNEMGYQAGPADGLWGNKTENAVKLLLSDNNLKWDGTFDQNEIKIIEEIFLSND,-0.257
16,HMKEIYIDRGKEALEKELRKRKIPFQEFLSKENTNLLFDTLKIPSHDLEELYLEIGNGKHAASTVVNTVY,-0.0339
17,HMEGVTVPDVTRISLDEAEELLTSYGLRFEVADRRANSAFPGNYVIDQAPSAEVIVKPNRKIYLTVNAA,-0.188
18,HMGARHPLPYPFARAHGLLLEADGERSTLWASTNVSPAALSEVMRKYAVDVIEEEPPETLSQRIAAAYAA,-0.763
19,HMDILEVLIKKDLAMELLEQLTERQRTVVYLRYFYQLNQKEIADYLGISQQRVSEILSRAKAVLTAYTKK,-0.878
20,HMQVSDEGPIKAILQEVLDKSPTQLADYASGKVKLRQYFFGEAMKALKGKANPQVINKLLDEMLPPVAA,-0.178
21,HMSDLQTGDINQDGTVDEKDLSLLHSYNLELIKTISNAADLNEDGVINGLDEAYLKRLFLQNSDP,-0.142
22,HMVSSAEQQARDKESGMILVQEAGGPDKARALVEKMRQDIRNPALDGTRRQMLRGHVARIELALAELETG,-0.0115
23,HMLRKTTDLDAIRSVAKDVIDQNPKAVEDYVGGKESAIGFLLGQVMRATKGTADANTVRELLKEILDS,-0.234
24,HMVITATYTDFMDALEADEVKQVQFSSTEINYTIEKGGHVQYFKTGVVDNPQLPQILREKGVTYAAEIP,-0.023
25,HMTPGPFLVYITGAVERPNVLVTLDYGSRVIDALNAAGGSRIDANLDLVNLAQRLVDGDQIHVPTLR,-1.1
26,HMPTMEQTYIGRTMIAEEDMGKNSKIKVSGIYWTAYNKGRVIKKGEEYKITGIEGNKLIVSSK,0.179
27,HMGNTLAYSEFRQKVQEGAVKQVVLSEDRVTGELTNGDRFTANIVRDPELLKMLNDNNVKYDGKPT,-0.0484
28,HMEPVIELGDRTLPIEITRHRRARRLTLRLAADGSAVRITLPHWARSAEATAFAHARRDWLAAQLAK,0.108

row,Sequence,soluble fraction (log2)
1,HMALTQEQLGQRLQDARKSVALTQQEVAEDLGLSRESLAQIEAGSRSVNSLEIVRLARLYGRSLSSILLE,-0.299
2,HMDTYDSIDSILEERHLSRRKLAQAIGLPPSTFQSMMSRKSGMTLEVLMKIVSYLQVSPDAFW,0.061
3,HMVIMDLIVNGEPKYVVGEQLHLILDELGYSGKHFVVELNGEILSKEAYTTTKLTAADRLEIVSFVGG,-1.72
4,HMDTFYKNLSKKIKTIREKLSFSQEALAKELGISRVAISQIENGDRKISAEEIAKLSRVFNVPTDILLN,0.131
5,HMQKIEKVDYGTFLKMIENGEIDQVNLTEKKISFTTDKDAETVYETGRVEDPNIVDRLYQADVEFTQEI,-0.884
6,HMQLNNTDELEKIILKILENNPKQVDQFLAGKQKLLGFFVGQAMRATSGKANPKTVNDLLEKFLSK,-0.335
7,HMSQLSDEQELRDIARGIIEGNPNEAEKYRAGRTGLLGFFVGKLMAETEGKANPRLASRILKELLE,-0.441
8,HMSQEHTVPDYKDMEATVVYADLTQKGLNYEIAQETSPTIKEGNVTQTIPGMNEKVVSGDTITVFVSTGTG,-0.907
9,HMDINLSENLVRLRHAKKLTQEQLADFLGVTKASVSKWETRQSLPDILLLPRLAAFYGVTVDELIGYEP,≥ 0.43
10,HMGSEYPSNPLASRWAKGVRLYHDEWGYGVIQAARGSEPDDYVITVRFESGAEKSFLPKFQAHSLMIVKD,-0.974
11,HMTEAVYMPALQNKTLEEAQRIVEQYDLELEYTYEANAQVEEGRILSQTPQMGVLVERGEKVQAVVSLG,-0.43
12,HMGHLTWTVTGIGHERRARTVAEQMSSVFGVLEARASSAGTVYLEFEREKIDEGGLEASLKRMGVTRVV,-2.05
13,HMSLRGEKTYDEAHQKLIKSAVELFKNPLVSPEKITVSQIAKHAGVSVATAYNHFPENKLDIYGSIF,-0.0613
14,HMSDFKDIILKLRNEQGFTQEKLADVLGTSKSTVGMWEMGVRFPSKELYEAIADYFNVDIDYLYGRTDIR,-1.35
15,HMRNEFEAHSDGTRIQLNDRSKATFSVYDVQGRLIHSFQDFSGSSFNIEPKNQLLIITRETAEGVSVKKLV,-0.322
16,HMPDAGQRRYLELVTALAGARSLTIDDLERRAIRFAEWGNGYSGRTARQFIDTLLQDRGVAEEL,-0.935
17,HMAAVPYQVKITTEDLRIRTGPGTNHDFTGQYTGKGVFTIVEESEGSGAPIWGRLKSGAGWIGIDPSWSVR,-0.524
18,HMADFIKEIKTNNPRQLLKSILSSFMPRALILELEMLLWNDLKSKPIGEWSNTQIENVGKLLNNWILKPAA,0.164
19,HMVELNDNEKIVYDILKETEKIHIDELTAKVQLTQSILSGALVQMEMKGMIVSLPGKMYKLL,-1.53
20,HMDYRSMSGLQKAALLIMSVGEETAAKLFQLMHDDEIREISQTMANLGTVNATVIERLFVEFADAISS,-0.935
21,HMEHDTVLSKVFRRLREAHVPLSLDDIYQGLRKTVNNNSEIREKIVTLQERGLVAEILGPKGGKKYVAKPT,0.199
22,HMIQVNKTQALIIEEMRDNPNITLLELQKTLSLGRTAIQNNVSSLRKRQIIKRVGSNKNGYWEVTDK,0.22
23,HMETNFTGTRIATARKAKNMSQAQLAQQLFISPQAVGKWERGESIPDIVTVVKLADVLGVDLNYFSE,-0.403
24,HMIPENKRVLISLTYIYGIGKKISQDILEKANIDSSIKTSQLTDDDVARIRQLIENDYLVEGELRV,0.00777
25,HMTKYEKKIFEIVNASRDHLTAEQVLAALREEYPAVSQATVYNNLKKLTSDGLLRKLTLADSPDRYD,0.211
26,HMPDYAFEGVVIKLTHRDYDRWKAGFPDVDLPPYLTARDAWLSEQTPADRKNWFVSTATDLRNFQKREAI,-0.362
27,HMLPPHMEVRAIMILDKRPMALMNIEGEGDGLIVSPGYRFGDGRGRVVSITQTKVVVLWAGTSMEL,-0.383
